System: K562 target cells
Assay: Cytotoxicity-blocking with soluble NKp30 (LDH release)
Type: cell-based, human
Conditions: 10 μg/ml, K562 targets, E:T 5:1, 5-h LDH release
Experimental: FIG. 7C further illustrates that lysis was mediated by the chimeric NKp30 constructs. […] Effector T cells modified with wtNKp30 or NKp30-CD28-3ζ were cocultured with target cells K562 in the presence of 10 μg/ml NKp30-mIgG2a or mouse IgG at a ratio of 5:1; the percentage of specific lysis was determined after a 5-h LDH-release assay. The data are presented as mean+/−SD and are representative of two independent experiments.
The cytotoxic activity of chimeric NKp30-modified human T cells against various tumor cell lines was determined. […] To confirm that chimeric NKp30-mediated killing is dependent on the interactions between NKp30 and its ligands, soluble NKp30 (NKp30-mIgG2a) was incubated with K562 target cells prior to the coculture with T cells.
Cytotoxicity of T cells against target cells was determined by an LDHrelease assay using the CytoTox 96 Non-Radioactive Cytotoxicity Assay kit (Promega, Madison, WI). Specific lysis was determined using the following equation: percentage of specific lysis=[(experimental−effector spontaneous−target spontaneous)/(target maximum−target spontaneous)]×100. In the cytotoxicity-blocking experiments, K562 target cells were preincubated with a soluble NKp30 receptor, NKp30-mIgG2a ([…]), for 30 min before coculture with T cells in an LDH-release assay.

Substance: NKp30-mIgG2a: soluble fusion protein: extracellular portion of human NKp30 fused to the mouse IgG2a hinge-CH2-CH3 portion
- NKp30-28-3ζ-bearing T cell-mediated cytotoxicity in presence of soluble NKp30: significantly reduced

Source: patent US12559537B2, “Nucleic acid encoding NKP30 receptor targeted therapeutics” (THE TRUSTEES OF DARTMOUTH COLLEGE, priority 2011, dated 2026)
